pKi data for seven molecules are collected here from US6849727.

Assay [1] deals with rat spinal cord membrane receptor. Description: competition binding, rat spinal cord membranes.
For assay [2] the target is unchanged. Put plainly: competition binding, rat spinal cord membranes (SEM 0; may be a floor value).
For assay [3], the target named is rat neuropeptide FF receptor (NPFF1) (rat) (UniProt Q9EP86). Description: competition vs [125I]D-Tyr-NPFF, COS-7 membranes (SEM 0; may be a floor value).
Chain of rat neuropeptide FF receptor (NPFF1) (rat) (Q9EP86 whole entry): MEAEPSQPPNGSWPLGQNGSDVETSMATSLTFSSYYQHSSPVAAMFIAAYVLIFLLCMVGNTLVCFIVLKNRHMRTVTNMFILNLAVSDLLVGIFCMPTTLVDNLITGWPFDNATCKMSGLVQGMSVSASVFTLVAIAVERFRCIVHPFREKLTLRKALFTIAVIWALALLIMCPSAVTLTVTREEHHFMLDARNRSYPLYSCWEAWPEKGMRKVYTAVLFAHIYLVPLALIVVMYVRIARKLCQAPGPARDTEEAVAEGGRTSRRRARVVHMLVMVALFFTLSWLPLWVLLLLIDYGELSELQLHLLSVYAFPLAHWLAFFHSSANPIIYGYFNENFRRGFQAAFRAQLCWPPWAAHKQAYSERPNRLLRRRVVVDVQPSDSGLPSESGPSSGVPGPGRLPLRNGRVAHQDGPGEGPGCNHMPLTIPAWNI

No end group written: not given here.

rat NPFF (FLFQPQRF-NH2) (peptide): the pKi in assay [1] was 9.05.
For the molecule Met5-Arg6-Phe7-Enk-OH (peptide), the pKi in assay [2] and in assay [3] was 5 in each case.
Turning to Tyr-MIF-1 (peptide), the negative-log Ki (pKi) in assay [3] amounted to 5.
AGEGLSSPFWSLAAPQRF-NH2 [rat A-18-F-amide (…-NH2)] showed a pKi in assay [1] of 9.
Molecule H-KHQYLRF-NH2 [AF-2 (H-Lys-His-Gln-Tyr-Leu-Arg-Phe-NH2)] came in with a negative-log Ki (pKi) in assay [1] of 7.96.
For PDVDHVFLRF-NH2 [Schisto(FLRFNH2) (Pro-Asp-Val-Asp-His-Val-Phe-Leu-Arg-Phe-amide)], the negative-log Ki (pKi) in assay [1] is 6.39.
On the same count and under the same terms, then H-KNQFIRF-NH2 [AF-1 (FMRF-like peptide H2N-Lys-Asn-Gln-Phe-Ile-Arg-Phe-NH2)], with 7.56.
